From the RNAGym collection of RNA variant scans (doi:10.1021/acssynbio.7b00057)

B1: Pistol ribozyme (parent)
chain: GGGUCGUUGUUCCAUAAUCGCGUGGAUAUGGCACGCAAGUUUCUACCGGGCACCGUAAAUGUCCGACUGGAGCCGUUCGGGCGGCUAUAAACAGACCUCAGGCCCGAAGCGUGGCGGCACCUGCCGCCGGUGGUAAAAAAGAUCGGAAGAGCACACGUCU

Variants of: B1
Experiment: aptazyme ON/OFF ratio, guanine; higher = stronger switching; co-transcriptional cleavage with and without guanine

Variant | aptazyme ON/OFF ratio
U8C G9A U11C C12U | 1.16
U8C G9A U11C C12A | 1.3
U8C G9A U11C C12G | 1.29
U8C G9C U10A U11A C12A C13A | 1.07
U8C G9C U10A U11A C12A C13U | 1.08
U8C G9C U10A U11A C12A C13G | 1.11
U8C G9C U10G U11G | 1.11
U8C G9C U10G U11A | 1.1
U8C G9C U10G U11C | 1.12
U8C G9A U11A C12A C13A | 1.15
U8C G9A U11A C12A C13G | 1.13
U8C G9A U11A C12A C13U | 1.34
U8C G9C U10G | 1.43
U8C G9C U10A | 1.51
U8C G9C U10C | 1.97
U8C G9A U10G C12G C13G | 1.11
U8C G9A U10G C12G C13U | 1.22
U8C G9A U10G C12G C13A | 1.14
U8C G9C U10C U11A C12G C13U | 1.1
U8C G9C U10C U11A C12G C13A | 1.06
U8C G9C U10C U11A C12G C13G | 1.08
U8C G9A U11G C12A | 1.06
U8C G9A U11G C12U | 1.29
U8C G9A U11G C12G | 1.3

Variant | aptazyme ON/OFF ratio
U8C G9C U10A U11A C12U C13G | 1.1
U8C G9C U10A U11A C12U C13A | 1.09
U8C G9C U10A U11A C12U C13U | 1.08
U8C G9A U10G U11A C12U C13U | 1.17
U8C G9A U10G U11A C12U C13G | 1.16
U8C G9A U10G U11A C12U C13A | 1.1
U8C G9A U10G U11A C12A C13A | 1.14
U8C G9A U10G U11A C12A C13G | 1.12
U8C G9A U10G U11A C12A C13U | 1.15
U8C G9A U10G C13A | 1.28
U8C G9A U10G C13G | 1.14
U8C G9A U10G C13U | 1.26
U8C G9C U10C U11C C12G C13U | 1.06
U8C G9C U10C U11C C12G C13A | 1.12
U8C G9C U10C U11C C12G C13G | 1.09
U8C G9A U11C C13U | 1.04
U8C G9A U11C C13A | 1.06
U8C G9A U11C C13G | 1.04
U8C G9C C12G C13U | 1.13
U8C G9C C12G C13A | 1.14
U8C G9C C12G C13G | 1.14
U8C G9C U10G C12U C13U | 1.28
U8C G9C U10G C12U C13A | 1.12
U8C G9C U10G C12U C13G | 1.06

Variant | aptazyme ON/OFF ratio
U8C G9C U11A C13A | 1.04
U8C G9C U11A C13U | 1.07
U8C G9C U11A C13G | 1.12
U8C G9C U10G U11C C12A C13U | 1.13
U8C G9C U10G U11C C12A C13G | 1.14
U8C G9C U10G U11C C12A C13A | 1.19
U8C G9C U10A U11C | 1.05
U8C G9C U10A U11A | 1.24
U8C G9C U10A U11G | 1.16
U8C G9A U10G U11G C13U | 1.09
U8C G9A U10G U11G C13G | 1.13
U8C G9A U10G U11G C13A | 1.15
U8C G9A U10G C12U | 1.36
U8C G9A U10G C12G | 1.15
U8C G9A U11A C12A | 1.25
U8C G9A U11A C12G | 1.18
U8C G9A U11A C12U | 1.1
U8C G9C U10G C12G C13G | 1.09
U8C G9C U10G C12G C13A | 1.08
U8C G9C U10G C12G C13U | 1.09
U8C G9A U10G C12U C13G | 1.2
U8C G9A U10G C12U C13A | 1.19
U8C G9A U10G C12U C13U | 1.54
U8C G9C U10G C13U | 1.11

Variant | aptazyme ON/OFF ratio
U8C G9C U10G C13A | 1.1
U8C G9C U10G C13G | 1.19
U8C G9A U10G U11G C12G C13U | 1.11
U8C G9A U10G U11G C12G C13G | 1.09
U8C G9A U10G U11G C12G C13A | 1.1
U8C G9C U10C C12A C13U | 1.03
U8C G9C U10C C12A C13G | 1.08
U8C G9C U10C C12A C13A | 1
U8C G9A U10G U11A C12A | 1.19
U8C G9A U10G U11A C12G | 1.14
U8C G9A U10G U11A C12U | 1.04
U8C G9A U11G C12G C13A | 1.19
U8C G9A U11G C12G C13U | 1.11
U8C G9A U11G C12G C13G | 1.19
U8C G9C U10G U11G C12A C13U | 1.08
U8C G9C U10G U11G C12A C13A | 1.08
U8C G9C U10G U11G C12A C13G | 1.11
U8C G9A U10G U11C C13U | 1.06
U8C G9A U10G U11C C13A | 1.11
U8C G9A U10G U11C C13G | 1.07
U8C G9A U11C C12G C13G | 1.26
U8C G9A U11C C12G C13U | 1.18
U8C G9A U11C C12G C13A | 1.24
U8C G9A U11C C12A C13A | 1.15

Variant | aptazyme ON/OFF ratio
U8C G9A U11C C12A C13G | 1.14
U8C G9A U11C C12A C13U | 1.17
U8C G9C U10G C12U | 1.12
U8C G9C U10G C12A | 1.2
U8C G9C U10G C12G | 1.19
U8C G9A U10G U11C C12U C13G | 1.15
U8C G9A U10G U11C C12U C13A | 1.2
U8C G9A U10G U11C C12U C13U | 1.28
U8C G9C U10G U11A C12G | 1.26
U8C G9C U10G U11A C12A | 1.21
U8C G9C U10G U11A C12U | 1.02
U8C G9C | 1.12
U8C G9C U10A C12A C13U | 1.11
U8C G9C U10A C12A C13G | 1.15
U8C G9C U10A C12A C13A | 1.09
U8C G9C U10C C13G | 1.05
U8C G9C U10C C13U | 1.12
U8C G9C U10C C13A | 1.01
U8C G9C U11A | 1.18
U8C G9C U11C | 1.06
U8C G9A U10G U11A C13A | 1.03
U8C G9A U10G U11A C13G | 1.04
U8C G9A U10G U11A C13U | 1.02
U8C G9C U10C U11G C12U C13G | 1.1

Variant | aptazyme ON/OFF ratio
U8C G9C U10C U11G C12U C13U | 1.06
U8C G9C U10C U11G C12U C13A | 1.05
U8C G9C U10C U11G C12A C13A | 1.2
U8C G9C U10C U11G C12A C13U | 1.15
U8C G9C U10C U11G C12A C13G | 1.16
U8C G9C U10A U11G C12G | 1.32
U8C G9C U10A U11G C12A | 1.07
U8C G9C U10A U11G C12U | 1.22
U8C G9C U10A U11G C12A C13U | 1.07
U8C G9C U10A U11G C12A C13A | 1.16
U8C G9C U10A U11G C12A C13G | 1.09
U8C G9C U10G U11C C13G | 1.22
U8C G9C U10G U11C C13A | 1.3
U8C G9C U10G U11C C13U | 1.2
U8C G9C U11A C12A C13G | 1.12
U8C G9C U11A C12A C13U | 1.05
U8C G9C U11A C12A C13A | 1.09
U8C G9C U10G U11A C13A | 1.13
U8C G9C U10G U11A C13U | 1.06
U8C G9C U10G U11A C13G | 1.19
U8C G9A U10G U11A C12G C13G | 1.35
U8C G9A U10G U11A C12G C13U | 1.22
U8C G9A U10G U11A C12G C13A | 1.19
U8C G9C U10G U11C C12U C13A | 1.17

Variant | aptazyme ON/OFF ratio
U8C G9C U10G U11C C12U C13G | 1.09
U8C G9C U10G U11C C12U C13U | 1.19
U8C G9A U10G U11C C12G C13G | 1.28
U8C G9A U10G U11C C12G C13A | 1.18
U8C G9A U10G U11C C12G C13U | 1.2
U8C G9A U11A C12U C13U | 1.29
U8C G9A U11A C12U C13A | 1.21
U8C G9A U11A C12U C13G | 1.14
U8C G9C C12U C13U | 1.13
U8C G9C C12U C13A | 1.05
U8C G9C C12U C13G | 1.07
U8C G9A U10G U11C C12A C13U | 1.22
U8C G9A U10G U11C C12A C13A | 1.15
U8C G9A U10G U11C C12A C13G | 1.1
U8C G9C U10G U11A C12A C13U | 1.1
U8C G9C U10G U11A C12A C13G | 1.1
U8C G9C U10G U11A C12A C13A | 1.16
U8C G9A U11C C12U C13A | 1.16
U8C G9A U11C C12U C13G | 1.08
U8C G9A U11C C12U C13U | 1.22
U8C G9C U10A U11C C12A C13U | 1.22
U8C G9C U10A U11C C12A C13A | 1.27
U8C G9C U10A U11C C12A C13G | 1.18
